Measurements: PMC6050322, “A radical S-adenosyl-L-methionine enzyme and a methyltransferase catalyze cyclopropane formation in natural product biosynthesis” (Nature Communications, 2018)

Biological target: T1, HemN-like radical SAM enzyme Swoo_2002 (Shewanella woodyi ATCC 51908, UniProt B1KQP7 1-448)
T1 construct: Swoo_2002, HemN-like radical SAM enzyme (counterpart of C10P) from a cryptic biosynthetic gene cluster of Shewanella woodyi ATCC 51908; The enzyme carries one [4Fe-4S] cluster per polypeptide after anaerobic reconstitution; also called C10P surrogate; c10P counterpart; source: E. coli Rosetta(DE3) (strain E. coli RoTB-SW), purified (Ni-NTA, desalination column)
T1 sequence (looked up): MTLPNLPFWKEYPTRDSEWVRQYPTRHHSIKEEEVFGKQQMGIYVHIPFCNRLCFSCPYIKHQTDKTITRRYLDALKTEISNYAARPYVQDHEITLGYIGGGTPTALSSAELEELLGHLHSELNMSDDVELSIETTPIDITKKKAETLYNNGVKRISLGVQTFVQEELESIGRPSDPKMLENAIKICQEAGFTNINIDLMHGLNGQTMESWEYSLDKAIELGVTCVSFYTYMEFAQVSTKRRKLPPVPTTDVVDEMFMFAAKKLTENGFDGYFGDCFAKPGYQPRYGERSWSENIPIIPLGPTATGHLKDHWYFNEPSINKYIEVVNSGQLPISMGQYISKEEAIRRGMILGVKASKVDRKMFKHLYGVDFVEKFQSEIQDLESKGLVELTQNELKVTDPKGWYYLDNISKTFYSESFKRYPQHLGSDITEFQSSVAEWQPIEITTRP
Test: ITC; 600 μM C10Q titrated into 200 μL of 60 μM Swoo_2002; PBS buffer pH 7.4 (after desalination, no glycerol, less than 5‰ DMSO); Malvern MicroCal ITC200
Conditions: both partners purified

B1: methyltransferase C10Q (enzyme, Streptomyces zelensis NRRL 11183, UniProt A0A1W6EUU7 1-234, looked up)
chain: MTTEAPLLDLAERVPLDRPHGDIEAVRAYDLGMRRSALMAYKRPTERILAAYREGMTDFVDIGFNTGLLSLHVAGRLPDVAVSGVEEFPHLVDVAEDNLTLGVWANMAGDVEFEQSKLSRLPFPDDSADIVYSFSSLHRWRRPVETLREAARVCKPDGTVLIEDVNRLAEEGHITFILQFVKEGGDQFMRSLKAAYSLDQARDLLREAGLDDWHVVEEDLGLVISNRPVTPVSM
notes: SAM-dependent methyltransferase C10Q of the CC-1065 biosynthetic gene cluster, Streptomyces zelensis NRRL 11183; cloned from total DNA by 'similar procedures' as the intact c10P gene; source: E. coli Rosetta(DE3) (strain E. coli Ro37-Q), purified (Ni-NTA, desalination column)
  Kd: 8 µM
